US20190060405A1

Target: rat CSF1-R (CD115) expressed on pDCs (rat) (UniProt Q00495)
Test: cell-based or functional assay

UniProt Q00495, sequence (Q00495 20-978): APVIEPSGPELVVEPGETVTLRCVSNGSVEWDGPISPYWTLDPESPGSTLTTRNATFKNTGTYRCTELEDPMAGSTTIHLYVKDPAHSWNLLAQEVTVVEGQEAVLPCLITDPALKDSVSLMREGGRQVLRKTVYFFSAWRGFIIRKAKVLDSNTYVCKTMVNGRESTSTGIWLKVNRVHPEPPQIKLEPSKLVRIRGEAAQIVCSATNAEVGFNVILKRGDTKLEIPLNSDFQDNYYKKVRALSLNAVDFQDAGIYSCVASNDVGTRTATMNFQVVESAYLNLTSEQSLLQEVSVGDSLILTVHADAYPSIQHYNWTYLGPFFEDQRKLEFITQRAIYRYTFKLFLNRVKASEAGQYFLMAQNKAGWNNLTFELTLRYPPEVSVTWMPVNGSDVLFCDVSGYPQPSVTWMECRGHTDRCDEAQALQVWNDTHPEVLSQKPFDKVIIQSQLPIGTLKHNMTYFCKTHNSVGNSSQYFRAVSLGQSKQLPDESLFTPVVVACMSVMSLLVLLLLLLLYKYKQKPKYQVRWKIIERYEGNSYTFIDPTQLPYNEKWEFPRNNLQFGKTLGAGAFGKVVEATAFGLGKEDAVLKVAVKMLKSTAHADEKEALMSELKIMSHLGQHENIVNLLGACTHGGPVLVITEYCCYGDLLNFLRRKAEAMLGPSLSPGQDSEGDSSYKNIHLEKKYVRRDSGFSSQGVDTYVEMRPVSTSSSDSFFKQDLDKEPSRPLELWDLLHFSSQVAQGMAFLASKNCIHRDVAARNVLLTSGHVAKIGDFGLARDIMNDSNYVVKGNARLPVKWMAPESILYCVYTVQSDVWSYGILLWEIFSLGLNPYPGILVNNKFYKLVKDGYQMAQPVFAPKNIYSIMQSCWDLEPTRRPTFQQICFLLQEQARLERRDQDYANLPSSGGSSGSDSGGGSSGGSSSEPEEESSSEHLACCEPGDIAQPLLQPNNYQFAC

- suppression of CD4+CD25- T cells proliferation (MLR, CFSE): 93.5%
Substance: Rat M-CSF protein (ab56288, ABCAM) (from UniProt Q8JZQ0 33-187) (ligand)
